Data reported in patent US20200216522A1 (DENALI THERAPEUTICS, published 2020).

Columns and labels:
Assay in all cases: peptide array
Peptide_064 = target: T1, Peptide_064 (human)
T1 peptide: SKVTSKCGSLGNIHH
Description: (§1) Chimeric IgG antibodies were diluted to a concentration of 5 μg/mL in 3% bovine serum albumin in Tris-buffered saline (10 mM Tris, pH 7.5, 150 mM NaCl) supplemented with 0.05% Tween®20 (3% BSA-TBST). Diluted antibodies were allowed to bind to peptides printed onto slides for 2 hours at room temperature as described in the PepStar™ user manual (JPT Technologies). Following extensive washing (5×5 minutes with TBST), slides were incubated with secondary antibodies goat anti-human IgG, Alexa Fluor 568 conjugate, 1 μg/mL in 3% BSA-TBST) for 1 hour at room temperature. After extensive washing, (5×5 minutes with TBST, then 5×5 minutes with ultrapure water), slides were dried overnight and imaged using an Opera Phenix™ system in the 568 nm channel. Images were aligned to peptide array definition files using Galviewer software obtained from JPT Technologies and ImageJ software with control human IgG serving as landmarks.
(§2) Full-length human Tau (encoded by the microtubule-associated protein Tau isoform 2 gene (MAPT), amino acid sequence NCBI Reference Sequence No. NP_005901.2, SEQ ID NO: 1, variant designation “2N4R”) was divided into 15 amino acid peptides, offset by 5 amino acids (overlapping by 10 amino acids). Peptides were synthesized and covalently attached to silica slides in triplicate with a spot size of 0.5 mm (obtained from JPT Technologies, Berlin, Germany). Antibodies muIgG were diluted to a concentration of 30 μg/mL in 3% bovine serum albumin in Tris-buffered saline (10 mM Tris, pH 7.5, 150 mM NaCl) supplemented with 0.05% Tween® 20 (3% BSA-TBST). Diluted antibodies were allowed to bind to peptides printed onto slides for 2 hours at room temperature as described in the Pepstar™ user manual (JPT Technologies). Following extensive washing (5×5 min TBST), slides were incubated with secondary antibodies (donkey anti-mouse IgG, Alexafluor 647 conjugate, 5 μg/mL in 3% BSA-TBST) for 1 hour at room temperature. After extensive washing, (5×5 minutes TBST, 5×5 minutes ultrapure water), slides were dried under a stream of nitrogen and imaged on the Opera Phenix in the 647 nm channel. Images were aligned to peptide array definition file using Galviewer software obtained from JPT Technologies and ImageJ software with control mouse IgG serving as landmarks.

Peptide_044 = target: T2, Peptide_044 (human)
T2 peptide: PTPPTREPKKVAVVR
Description: as §1, §2

Peptide_050 = target: T3, Peptide_050 (human)
T3 peptide: APVPMPDLKNVKSKI
Description: as §1, §2

Peptide_035 = target: T4, Peptide_035 (human)
T4 peptide: IPAKTPPAPKTPPSS
Description: as §1, §2

Peptide_013 = target: T5, Peptide_013 (human)
T5 peptide: SETSDAKSTPTAEDV
Description: as §1, §2

Peptide_085 = target: T6, Peptide_085 (human)
T6 peptide: DSPQLATLADEVSAS
Description: as §1, §2

Peptide_084 = target: T7, Peptide_084 (human)
T7 peptide: SIDMVDSPQLATLAD
Description: as §1, §2

Peptide_001 = target: T8, Peptide_001 (human)
T8 peptide: MAEPRQEFEVMEDHA
Description: as §1, §2

Peptide_059 = target: T9, Peptide_059 (human)
T9 peptide: CGSKDNIKHVPGGGS
Description: as §1, §2

Peptide_029 = target: T10, Peptide_029 (human)
T10 peptide: KAKGADGKTKIATPR
Description: as §1, §2

Peptide_011 = target: T11, Peptide_011 (human)
T11 peptide: PTEDGSEEPGSETSD
Description: as §1, §2

Peptide_034 = target: T12, Peptide_034 (human)
T12 peptide: ANATRIPAKTPPAPK
Description: as §1, §2

Peptide_045 = target: T13, Peptide_045 (human)
T13 peptide: REPKKVAVVRTPPKS
Description: as §1, §2

Peptide_028 = target: T14, Peptide_028 (human)
T14 peptide: GSDDKKAKGADGKTK
Description: as §1, §2

Peptide_074 = target: T15, Peptide_074 (human)
T15 peptide: GGNKKIETHKLTFRE
Description: as §1, §2

Peptide_077 = target: T16, Peptide_077 (human)
T16 peptide: NAKAKTDHGAEIVYK
Description: as §1, §2

Peptide_032 = target: T17, Peptide_032 (human)
T17 peptide: GAAPPGQKGQANATR
Description: as §1, §2

Peptide_039 = target: T18, Peptide_039 (human)
T18 peptide: SGDRSGYSSPGSPGT
Description: as §1, §2

Peptide_082 = target: T19, Peptide_082 (human)
T19 peptide: RHLSNVSSTGSIDMV
Description: as §1, §2

Peptide_009 = target: T20, Peptide_009 (human)
T20 peptide: AGLKESPLQTPTEDG
Description: as §1, §2

Peptide_026 = target: T21, Peptide_026 (human)
T21 peptide: RMVSKSKDGTGSDDK
Description: as §1, §2

Peptide_004 = target: T22, Peptide_004 (human)
T22 peptide: GTYGLGDRKDQGGYT
Description: as §1, §2

Peptide_076 = target: T23, Peptide_076 (human)
T23 peptide: LTFRENAKAKTDHGA
Description: as §1, §2

Peptide_071 = target: T24, Peptide_071 (human)
T24 peptide: QSKIGSLDNITHVPG
Description: as §1, §2

Peptide_063 = target: T25, Peptide_063 (human)
T25 peptide: KPVDLSKVTSKCGSL
Description: as §1, §2

Peptide_042 = target: T26, Peptide_042 (human)
T26 peptide: PGSRSRTPSLPTPPT
Description: as §1, §2

Peptide_015 = target: T27, Peptide_015 (human)
T27 peptide: TAEDVTAPLVDEGAP
Description: as §1, §2

Peptide_007 = target: T28, Peptide_007 (human)
T28 peptide: MHQDQEGDTDAGLKE
Description: as §1, §2

Peptide_051 = target: T29, Peptide_051 (human)
T29 peptide: PDLKNVKSKIGSTEN
Description: as §1, §2

Peptide_081 = target: T30, Peptide_081 (human)
T30 peptide: GDTSPRHLSNVSSTG
Description: as §1, §2

Peptide_017 = target: T31, Peptide_017 (human)
T31 peptide: DEGAPGKQAAAQPHT
Description: as §1, §2

Peptide_068 = target: T32, Peptide_068 (human)
T32 peptide: QVEVKSEKLDFKDRV
Description: as §1, §2

Peptide_079 = target: T33, Peptide_079 (human)
T33 peptide: EIVYKSPVVSGDTSP
Description: as §1, §2

Peptide_012 = target: T34, Peptide_012 (human)
T34 peptide: SEEPGSETSDAKSTP
Description: as §1, §2

Peptide_019 = target: T35, Peptide_019 (human)
T35 peptide: AQPHTEIPEGTTAEE
Description: as §1, §2

Measured: binding result

B1: chimeric IgG clone 1A1 (antibody, V domains shown)
VH: EVQLQQSGAELVRPGASVRLSCTASGFNIKDSLMHWLKQRPEQGLEWIGWIDPEDGETKYAPKFQDKATITADTSSNTAYLQLSSLTSEDTAIYYCTRRDWEGPWGQGTLVTVSA
VL: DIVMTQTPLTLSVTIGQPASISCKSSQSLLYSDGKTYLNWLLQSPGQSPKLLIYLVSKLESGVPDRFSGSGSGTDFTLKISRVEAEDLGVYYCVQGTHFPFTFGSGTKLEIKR
notes: mouse-human chimeric IgG from HEK293; also called anti-Tau 1A1; anti-Tau^1A1
binds: Peptide_051
no binding (tested: 5 ug/mL): all other assays above

B2: chimeric IgG clone 1A5 (antibody, V domains shown)
VH: EVQLQQSGAELVRPGASVKLSCTASGFNIKDSLIHWVKQRPEQGLEWIGWIDPEDGETKYAPKFQDKATKTADTSSNTAYLQLSSLTSEDTAIYYCASGEWDYWGQGTSVTVSS
VL: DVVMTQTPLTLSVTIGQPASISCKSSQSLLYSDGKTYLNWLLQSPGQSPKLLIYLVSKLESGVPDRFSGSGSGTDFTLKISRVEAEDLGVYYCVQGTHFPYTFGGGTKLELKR
notes: mouse-human chimeric IgG from HEK293
binds: Peptide_051
no binding (tested: 5 ug/mL): all other assays above
